In PMC9207482:

What was measured:
[1] = target: SlPYL1 E151D (tomato (Solanum lycopersicum)); assay: SEC; Superdex 30 Increase 3.2/300 column as printed; 50 ul with 60, 6 or 0.6 ug protein (48 to 0.48 uM injected); 30 mM Tris-HCl pH 7.5, 150 mM NaCl, 1 mM DTT; apo form, no ABA; refractive index detection
[2] = target: SlPYL1 wild type (tomato dimeric abscisic acid receptor PYL1) (tomato (Solanum lycopersicum)); assay: as above

Row | stoichiometry N [1] | stoichiometry N [2] | Substance
1 | 2 | – | SlPYL1 E151D (receptor)
2 | – | 2 | SlPYL1 wild type (tomato dimeric abscisic acid receptor PYL1)
